Patent publication US20190144550A1

Target: wild-type EGFR expressed on cells (human) (UniProt P00533)
Test: flow cytometry, A431 cells

FITC-conjugated goat anti-mouse Fc specific secondary antibody
MFI: 185
